The text below walks through data of FireProtDB (doi:10.1021/bi00102a015).

The conditions of the data set: Rhodobacter capsulatus (strain ATCC BAA-309 / NBRC 16581 / SB1003); pH 7.5; 25 °C; GdnHCl; CD; Tris-HCl 20 mM; NaCl 40 mM; whole UniProt chain shown.

B1: Cytochrome c2 wild type, P00094 (protein)
chain: MKISLTAATVAALVLAAPAFAGDAAKGEKEFNKCKTCHSIIAPDGTEIVKGAKTGPNLYGVVGRTAGTYPEFKYKDSIVALGASGFAWTEEDIATYVKDPGAFLKEKLDDKKAKTGMAFKLAKGGEDVAAYLASVVK
As for B1, the denaturant m value amounted to 2.7 kcal/mol/M, the “denaturant midpoint (higher = more stable)” value was 1.7 M and the unfolding free energy worked out at 4.4 kcal/mol.
